Laboratory results taken from patent US20190038796.

Target: EGF-MMP (recombinant epidermal growth factor with N-terminal PLP reactive site AKT, polyhistidine tag and MMP cleavage site VPLSLYSG)
Sequence (chain, as listed by the source): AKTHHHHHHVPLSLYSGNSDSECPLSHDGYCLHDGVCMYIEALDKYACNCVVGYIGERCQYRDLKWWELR

B1: Recombinant, human pro-MMP-9 expressed in CHO cells, activated with amino-phenyl mercuric acetate (APMA) (protein)
chain: APRQRQSTLVLFPGDLRTNLTDRQLAEEYLYRYGYTRVAEMRGESKSLGPALLLLQKQLSLPETGELDSATLKAMRTPRCGVPDLGRFQTFEGDLKWHHHNITYWIQNYSEDLPRAVIDDAFARAFALWSAVTPLTFTRVYSRDADIVIQFGVAEHGDGYPFDGKDGLLAHAFPPGPGIQGDAHFDDDELWSLGKGVVVPTRFGNADGAACHFPFIFEGRSYSACTTDGRSDGLPWCSTTANYDTDDRFGFCPSERLYTQDGNADGKPCQFPFIFQGQSYSACTTDGRSDGYRWCATTANYDRDKLFGFCPTRADSTVMGGNSAGELCVFPFTFLGKEYSTCTSEGRGDGRLWCATTSNFDSDKKWGFCPDQGYSLFLVAAHEFGHALGLDHSSVPEALMYPMYRFTEGPPLHKDDVNGIRHLYGPRPEPEPRPPTTTTPQPTAPPTVCPTGPPTVHPSERPTAGPTGPPSAGPTGPPTAGPSTATTVPLSPVDDACNVNIFDAIAEIGNQLYLFKDGKYWRFSEGRGSRPQGPFLIADKWPALPRKLDSVFEERLSKKLFFFSGRQVWVYTGASVLGPRRLDKLGLGADVAQVTGALRSGRGKMLLFSGRRLWRFDVKAQMVDPRSASEVDRMFPGVPLDTHDVFQYREKAYFCQDRFYWRVSSRSELNQVDQVGYVTYDILQCPED
With B1 as the protein, how does the “conversion to the cleaved product by integration of MALDI-TOF data” value read?
The value was “over 99% conversion to the cleaved product”.

What about the “molecular weight by MALDI-TOF after incubation with MMP-9 (cleavage)” value of the same protein?
The value was “After 2 hours, the molecular weight decreased from 8.16 kDa to 6.64 kDa, in precise agreement with the theoretical molecular weight of cleaved EGFMMP (6.64 kDa)”.
